Measurements reported in paper PMC3656037.

Tested on: Sau-PolC-ΔNΔExo (Staphylococcus aureus)
Assay: active site titration (pre-steady-state burst amplitude vs DNA, quadratic fit)
Conditions: Reaction buffer, salt, pH and temperature not given in the material; DNA annealed in 10 mM Tris-HCl pH 8, 1 mM EDTA, 100 mM NaCl; protein stored in 50 mM …

Question: With primer/template (p/t) DNA as the substance, how does the Kd read?
Answer: Its Kd is 390 nM.
